Results: patent US20090068174A1, “THERAPEUTIC ALKALINE PROTEASE COMPOSITIONS AND USE IN FACILITATING THE TRANSPORT OF AGENTS ACROSS THE GASTROINTESTINAL MUCOSAL LINING” (Kansas University Medical Center Research Institute, Inc., priority 2007, published 2009)
Entries after “also recorded” stand apart in the source; their conditions may differ.

T1: mouse recombinant IFN-γ (Mus musculus, UniProt P01580)
T1 sequence (P01580 23-155): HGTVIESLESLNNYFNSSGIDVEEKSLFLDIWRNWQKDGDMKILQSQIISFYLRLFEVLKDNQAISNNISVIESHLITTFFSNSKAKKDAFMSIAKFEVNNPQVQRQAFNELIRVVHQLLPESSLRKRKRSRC

T2: mouse recombinant TNF-α (Mus musculus, UniProt P06804)
T2 sequence (P06804 80-235 limits assumed): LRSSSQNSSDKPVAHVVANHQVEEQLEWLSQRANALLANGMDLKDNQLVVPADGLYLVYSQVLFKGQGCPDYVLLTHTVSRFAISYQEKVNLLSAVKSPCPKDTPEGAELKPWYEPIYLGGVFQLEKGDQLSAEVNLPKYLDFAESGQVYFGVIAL

T3: human IFN-γ (Homo sapiens, UniProt P01579)
T3 sequence (P01579 24-166): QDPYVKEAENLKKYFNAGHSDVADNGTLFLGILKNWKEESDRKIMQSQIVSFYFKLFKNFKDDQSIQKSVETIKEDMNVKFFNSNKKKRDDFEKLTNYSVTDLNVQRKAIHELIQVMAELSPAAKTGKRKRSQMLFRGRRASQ


Assays:
[1] = Hydrolysis of D-val-leu-lys-pNA (kinetic absorbance assay); assay type: biochemical; conditions: 20 mM Tris-HCl buffer, pH 7, absorbance at 405 nm
Protocol: Specific activity of the purified enzymes was determined by measuring hydrolysis of protamine sulfate and D-val-leu-lys-pNA. For the former, enzyme-substrate mixtures were prepared in 20 mM Tris-HCl, pH 7 or 8, and incubated for 30 min at 37° C. […] Hydrolysis of D-val-leu-lys-pNA in 20 mM Tris-HCl buffer, pH 7, was determined by measuring absorbance at 405 nm wavelength every 10 sec over 10 min and calculating the change in absorbance (mOD units) per min per μg protein.

[2] = Table 4, cited from earlier work
[3] = molecular target: T1, mouse recombinant IFN-γ; assay: Bioactivity of protease-treated mouse IFN-γ (NO production by C2C12 cells); assay type: cell-based
Protocol: Effects of three purified A. oryzae proteases on the bioactivity of mouse IFN-γ: (A) protease powder prepared according to Example 1 (preparation); (B) alkaline protease; (C) 26 kDa protease; and (D) deuterolysin. 50 ng quantities of mouse recombinant IFN-γ were incubated for 24 hours at 37° C. with either buffer or 2.5-10 ng of the indicated protease: (∘) Buffer; (▴) 2.5 ng; ([…]) 5 ng; (▪) 10 ng. IFN-γ bioactivity was determined as conduction of NO production by C2C12 cells.
To evaluate the specificity of this effect, the three Aspergillus oryzae proteases were tested for their ability to inactivate mouse IFN-γ, and a different pattern was seen. […] This was an unexpected finding given the ability of alkaline protease to cause partial proteolysis of IFN-γ.

[4] = molecular target: T2, mouse recombinant TNF-α; assay: Bioactivity of protease-treated mouse TNF-α in the C2C12 cell bioassay (nitrite); assay type: cell-based; design: key to Inactivation of Mouse TNF-α: +: Indicates that the protease inactivated the cytokine; ^a: Cleavage of the cytokine occurred without inactivation; conditions: for Effect on bioactivity of mouse TNF-α: C2C12 cells, NO (nitrite) production
Protocol: Effects of three purified A. oryzae proteases on the bioactivity of mouse TNF-α (A) protease powder prepared according to Example 1 (preparation); (B) alkaline protease; (C) 26 kDa protease; and (D) deuterolysin. 50 ng quantities of TNF-α were incubated at 37° C. for 24 hours with the indicated quantities of the protease powder prepared according to Example 1 or one of the three purified proteases. The reactions were then stopped by addition of FBS and samples were added to C2C12 cells that had been costimulated with mouse IFN-γ. Twenty-four hours later, nitrite was measured in culture fluids.
The protease powder prepared according to Example 1 inactivates mouse recombinant TNF-α. 50 ng of the cytokine was treated for 24 hours with either 0 (□); 5 (∘); or 10 ng ([…]) of either Pseudomonas elastase (A) or protease powder prepared according to Example 1 (B). Then the residual bioactivity of the cytokine was measured by its ability to co-activate mouse C2C12 myoblast cells in the presence of excess IFN-γ for the production of NO (nitrite).
The protease powder prepared according to Example 1 inactivates mouse recombinant TNF-α by limited proteolysis. (FIG. 16 A-B) This property was established by measuring the loss of activity of TNF-α in a bioassay in which the cytokine was used to coactivate mouse myoblast C2C12 cells for the production of NO by transcriptional activation of the inducible NO synthase (iNOS) gene. The assay can be used to measure either TNF-α or IFN-γ activity by adding test samples containing one of the cytokines to cells stimulated with an excess of the other cytokine. Nitrite is a stable endproduct of NO produced by the cells. […] (FIG. 16A-B).
The three purified proteases were then compared for their ability to inactivate mouse TNF-α using the C2C12 cell bioassay.

[5] = Biochemical properties of the purified proteases (Table 4): pH optimum, substrate specificity, metal requirements; conditions: established by inventors
[6] = molecular target: T3, human IFN-γ; assay: Human IFN-γ degradation (Western blotting); assay type: biochemical; conditions: Western blot, antibody to carboxyl terminus
Protocol: Effects of the purified A. oryzae proteases on human recombinant IFN-γ: (A) protease powder prepared according to Example 1 (preparation); (B) alkaline protease; (C) deuterolysin; and (D) 26 kDa protease. 50 ng quantities of human IFN-γ were incubated at 37° C. for 18 hours with the indicated quantities of preparation, alkaline protease, 26 kDa protease or deuterolysin. Western blotting was then used to determine substrate specificity. C=control, buffer-treated IFN-γ.
Cleavage was evidenced by the disappearance of the native 17 kDa IFN-γ band, rather than the appearance of distinct cleavage peptides. Because the antibody used in this Western blot was specific for the carboxyl terminus of human IFN-γ, these enzymes attack the cytokine at the C terminus (e.g., there is a loss in reactivity with the anti-cytokine antibody, rather than the appearance of smaller peptide products).

Molecule | Specific activity, Val-leu-lys-pNA [1] | pI [2] | Effect on bioactivity of mouse IFN-γ [3] | Effect on bioactivity of mouse TNF-α [4] | Substrate specificity [5] | Cleavage of human IFN-γ [6] | Heat stability ([2]; deuterolysin for 10 min, alkaline protease for 3 h) | Inactivation of Mouse TNF-α ([4]; Table 7 summary)
26 kDa Protease: A. oryzae protease cloned recently by Novozyme, labeled the 26 kDa protease, SEQ ID NO: 3 (protein, listed as Aspergillus oryzae) HASADAWASSKAISSTSSPSSFKMRFISVSSLLLALAPALNAVPVEVAGSAQGLDVTLSQVGNTRIKAWKNTGSEDVTFVHLNFFKDAAPVQKVSLFRNATEVQFQGIKQRLITEGLSDDALTTLAPGATIEDEFDIASTSDLSEGGTITINSNGLVPITTDNKVTGYIPFTSNELSIDVDAAEAASVTQAVKILERRTKVTSCSGSRLSALQTALRNTVSLARAAATAAQSGSSSRFQEYFKTTSSSTRSTVAARLNAVANEAASTSSGSTTYYCSDVYGYCSSNVLAYTLPSYNIIANCDLYYSYLPALTSTCHAQDQATTTLHEFTHAPGVYSPGTDDLGYGYSAATALSASQALLNADTYALFANAVNLNC | 2.1 mOD/min/μg protein | 6.72 | primarily associated with the 26 kDa protease | devoid of such activity | protamine | cleave human IFN-γ |  | 
Alkaline Protease: Aspergillus oryzae alkaline protease (oryzin), SEQ ID NO: 2, purified from the protease powder of Example 1 (protein, listed as Aspergillus oryzae) MQSIKRTLLLLGAILPAVLGAPVQETRRAAEKLPGKYIVTFKPGIDEAKIQEHTTWATNIHQRSLERRGATGGDLPVGIERNYKINKFAAYAGSFDDATIEEIRKNEDVAYVEEDQIYYLDGLTTQKSAPWGLGSISHKGQQSTDYIYDTSAGEGTYAYVVDSGVNVDHEEFEGRASKAYNAAGGQHVDSIGHGTHVSGTIAGKTYGIAKKASILSVKVFQGESSSTSVILDGFNWAANDIVSKKRTSKAAINMSLGGGYSKAFNDAVENAFEQGVLSVVAAGNENSDAGQTSPASAPDAITVAAIQKSNNRASFSNFGKVVDVFAPGQDILSAWIGSSSATNTISGTSMATPHIVGLSLYLAALENLDGPAAVTKRIKELATKDWKDVKGSPNLLAYNGNA | 116.7 mOD/min/μg protein | 6.53 | did not significantly affect the activity of mouse IFN-γ | dose-dependent inactivation of mouse TNF-α | Protamine > casein,; also recorded: hemoglobin; val-leu-lys | did not cleave human IFN-γ | Stable at 37 °C | +
